US7314919

Molecular target: His-tagged recombinant full-length HCV NS3 protein (aa 1027 to aa 1657 of the HCV polyprotein, 1b genotype), purified from E. coli (hepatitis C virus, 1b genotype)
Test: cell-based or functional assay

B1: Human recombinant anti-NS3 Fab (HFab-aNS3) (Fab, V domains shown)
VH: LEESGGGLVKPGGSLRLSCVASGLTFSRYNMQWVRQAPGKGLEWVASISTSGVYIYYADSVTGRFTISRDNSKNSLYLQMNSLGAEDTAVYYCARDLTFLCGGDCLQPWGQG
VL: AELTQSPSSLSASVGDRVTITCRASQGISRYLAWFQQRPGKAPKSLIYAASHLQSGVPSRFSASGSGTEFTLSISSLQPEDFATYYCQQYDTYPYTFGQGTKLEIKR
  inhibition of NTPase activity: 15%
  inhibition of helicase activity: 54%
